In US20250049896A1 (Regeneron, published 2025):

Tests used:
[1] = molecular target: T1, mf TFRC ecto-mmh (REGN2054), monomeric monkey (cyno) Tfrc ectodomain with C-terminal myc-myc-hexahistidine tag (monkey (cyno), Macaca fascicularis, UniProt H9EXL1 89-760); experiment: SPR (Biacore), mAb captured on anti-human Fc, 100 nM mfTfR-mmh, 25 C
T1 construct: range 89-760; also called mfTfR-mmh; mfTFR-mmh
Description: (§1) Biacore binding kinetics assays were conducted for the interaction of 32 anti-human TfR IgG1 monoclonal antibodies from CHO supernatants with TfR reagents at 25° C.
(§2) Equilibrium dissociation constants (KD) for the interaction of anti-TfR monoclonal antibodies with human and fascicularis monkey TfR ecto domain recombinant proteins were determined using a real-time surface plasmon resonance (SPR) based Biacore S200 biosensor. All binding studies were performed in 10 mM HEPES, 150 mM NaCl, 3 mM EDTA, and 0.05% v/v surfactant Tween-20, pH 7.4 (HBS-EP) running buffer at […]. The Biacore CM5 sensor surface was first derivatized by amine coupling with a monoclonal mouse anti-human Fc antibody (REGN2567) followed by a step to capture anti-TfR monoclonal antibodies in CHO conditioned media. […] The dissociation of TfR bound to anti-TfR monoclonal antibodies was monitored for 3 minutes in HBS-EP running buffer. At the end of each cycle, the anti-TfR monoclonal antibodies capture surface was regenerated using a 12-sec injection of 20 mM H₃PO₄. The association rate (ka) and dissociation rate (kd) were determined by fitting the real-time binding sensorgrams to a 1:1 binding model with mass transport limitation using Scrubber 2.0 c software. The dissociation equilibrium constant (KD) and dissociative half-life (t½) were calculated from the kinetic rate constants as: […]

[2] = molecular target: T2, hmm.hTfRC (REGN2431), human transferrin receptor extracellular domain with hexahistidine-myc-myc tag (human, UniProt P02786 89-760); experiment: SPR (Biacore), mAb captured on anti-human Fc, 100 nM hTFR-mmh, 25 C
T2 construct: Monomeric recombinant protein, 79210 g/mol; also called hTFR-mmh; His-myc-myc-hTFRC ecto
Description: as §1, §2

T1 sequence (chain, as listed by the source): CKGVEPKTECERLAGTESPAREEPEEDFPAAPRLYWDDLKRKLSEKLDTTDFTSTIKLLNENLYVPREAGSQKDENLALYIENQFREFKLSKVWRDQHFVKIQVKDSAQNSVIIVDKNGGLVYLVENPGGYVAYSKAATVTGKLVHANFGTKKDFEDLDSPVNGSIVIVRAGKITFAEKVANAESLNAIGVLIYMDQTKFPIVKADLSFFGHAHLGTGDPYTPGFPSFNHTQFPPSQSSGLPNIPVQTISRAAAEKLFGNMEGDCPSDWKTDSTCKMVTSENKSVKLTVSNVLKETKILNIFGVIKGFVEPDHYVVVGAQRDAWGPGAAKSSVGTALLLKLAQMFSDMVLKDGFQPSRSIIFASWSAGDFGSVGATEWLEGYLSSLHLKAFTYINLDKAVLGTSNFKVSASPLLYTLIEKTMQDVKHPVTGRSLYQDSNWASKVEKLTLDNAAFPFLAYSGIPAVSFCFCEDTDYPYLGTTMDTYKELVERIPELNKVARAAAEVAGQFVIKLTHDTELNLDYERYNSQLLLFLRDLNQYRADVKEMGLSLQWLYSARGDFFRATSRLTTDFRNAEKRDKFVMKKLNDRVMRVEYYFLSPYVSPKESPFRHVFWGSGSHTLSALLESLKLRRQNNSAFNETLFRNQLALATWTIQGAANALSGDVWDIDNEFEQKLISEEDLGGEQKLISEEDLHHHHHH
T2 sequence (P02786 other isoform, or with tags, fused parts or gaps): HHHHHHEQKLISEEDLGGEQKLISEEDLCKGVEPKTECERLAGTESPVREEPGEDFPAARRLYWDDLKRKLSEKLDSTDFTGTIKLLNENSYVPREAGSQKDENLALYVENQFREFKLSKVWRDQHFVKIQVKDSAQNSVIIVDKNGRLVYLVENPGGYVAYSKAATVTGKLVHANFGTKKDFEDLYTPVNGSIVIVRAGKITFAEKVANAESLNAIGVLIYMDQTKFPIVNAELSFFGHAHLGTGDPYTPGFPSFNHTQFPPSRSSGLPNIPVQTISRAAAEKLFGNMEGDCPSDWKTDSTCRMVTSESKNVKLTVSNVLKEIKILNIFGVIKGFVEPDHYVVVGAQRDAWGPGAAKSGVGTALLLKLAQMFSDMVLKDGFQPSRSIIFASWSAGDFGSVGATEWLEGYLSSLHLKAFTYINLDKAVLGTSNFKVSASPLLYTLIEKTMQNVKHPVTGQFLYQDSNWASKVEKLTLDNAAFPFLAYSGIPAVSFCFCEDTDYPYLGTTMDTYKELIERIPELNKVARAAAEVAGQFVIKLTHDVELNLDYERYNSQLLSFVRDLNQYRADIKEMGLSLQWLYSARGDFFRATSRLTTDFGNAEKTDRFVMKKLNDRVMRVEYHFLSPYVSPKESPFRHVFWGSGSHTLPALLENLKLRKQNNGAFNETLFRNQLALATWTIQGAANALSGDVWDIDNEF

| Binder | 100 nM Ag Bound (RU) [1] [RU] | Kd [1] [nM] | koff [1] [s⁻¹] | kon [1] [M⁻¹ s⁻¹] | t½ [1] [min] | 100 nM Ag Bound (RU) [2] [RU] | Kd [2] [nM] | koff [2] [s⁻¹] | kon [2] [M⁻¹ s⁻¹] | t½ [2] [min] |
| --- | --- | --- | --- | --- | --- | --- | --- | --- | --- | --- |
| 31874B (antibody, human IgG1, kappa, V domains shown, Tested as bivalent human IgG1 from CHO primary supernatant; also called H1H31874B; REGN17517) VH: EVQLVESGGGLVQPGGSLRLSCAASGFAFSSYAMTWVRQAPGKGLEWVSVISGTGGSTYYADSVKGRFTISRDNSKNTLYLQMNSLRAEDTAVYYCAKGGAARRMEYFQYWGQGTLVTVSS VL: DIQMTQSPSSLSASVGDRVTITCRASQGISNYLAWYQQKPGKVPNLLIYAASTLQSGVPSRFSGSGSGTDFTLTISSLQPEDVATYYCQKYNSAPLTFGGGTKVEIKR | 26 | 14.4 | 0.00996 | 691000 | 1.2 | 904 | 0.836 | 0.000115 | 138000 | 100 |
| 69348 (antibody, human IgG1, kappa, V domains shown, Tested as bivalent human IgG1 from CHO primary supernatant) VH: QVQLVESGGGVVQPGRSLRLSCAASGFTFTTYGMHWVRQAPGKGLEWVAVIWYDGSNKYYGDSVKGRFTISRDNSKNTLYLQMNSLRVDDTAVYYCTRTHGYTRSSDGFDYWGQGTLVTVSS VL: DIQMTQSPSSLSASVGDRVTITCRASQSIRNVLGWFQQKPGKAPQRLIYAASSLQSGVPSRFSGSGSGTEFTLTISSLQPEDFATYYCLQHNFYPLTFGGGTKVEIKR | 433 | 4.8 | 0.000461 | 96000 | 25.1 | 680 | 1.62 | 0.000172 | 106000 | 67.2 |
| 12798B (antibody, human IgG1, kappa, V domains shown, Tested as bivalent human IgG1 from CHO primary supernatant; also called H1H12798B; REGN17507) VH: EVQLVESGGDLVQPGRSLRLSCAASGFTFDDYAMHWVRQAPGKGLEWVSGISWNSATRVYADSVKGRFTISRDNAKNFLYLQMNSLRSEDTALYHCAKDMDISLGYYGLDVWGQGTTVTVSS VL: not shown | 508 | 16.3 | 0.00129 | 79000 | 9 | 1150 | 0.387 | 6.33e-05 | 163000 | 183 |
| 12808B (antibody, human IgG1, kappa, V domains shown, Tested as bivalent human IgG1 from CHO primary supernatant) VH: QLQLQESGPGLVKPSETLSLTCTVSGESISSNTYYWGWIRQPPGKGLEWIGSIDYSGTTNYNPSLKSRVTISVDTSRNHFSLRLRSVTAADTAVYYCAREWGNYGYYYGMDVWGQGTTVTVSS VL: DIQMTQSPSSLSASVGDRVTINCRASQGIRNDLGWYQQKPGKAPKRLIYAASSLQSGVPLRFSGSGSGTEFTLTINNLQPEDFATYYCLSHNSYPWTFGQGTKVEIKR | 626 | 5.78 | 0.000454 | 78500 | 25.5 | 964 | 0.894 | 0.000107 | 119000 | 108 |
| 69261 (antibody, human IgG1, kappa, V domains shown, Tested as bivalent human IgG1 from CHO primary supernatant) VH: QVQLVESGGGLVKPGGSLRLSCAASGFTFSVYYMNWIRQAPGKGLEWVSYISSSGSTIYYADSVKGRFTISRDNAKNSLYLQMNSLRAEDTAVYYCGREGYSGTYSYYGMDVWGQGTTVTVSS VL: not shown | 331 | 5.9 | 0.000403 | 68300 | 28.7 | 462 | 1.16 | 8.08e-05 | 70000 | 143 |
| 12833B (antibody, human IgG1, kappa, V domains shown, Tested as bivalent human IgG1 from CHO primary supernatant) VH: QVQLVESGGGVVQPGRSLRLSCAASGFTFSSFGMHWVRQAPGKGLEWVIFISYDGSDKYYADSVKGRFAISRDSSKNTLYLQMNSLRAEDTAVYYCAKENGILTDSYGMDVWGQGTTVTVSS VL: not shown | 346 | 7.02 | 0.000486 | 69200 | 23.8 | 409 | 3.51 | 0.000252 | 72000 | 45.9 |

Further lines, results first:

| 100 nM Ag Bound (RU) [1] [RU] | Kd [1] [nM] | koff [1] [s⁻¹] | kon [1] [M⁻¹ s⁻¹] | t½ [1] [min] | 100 nM Ag Bound (RU) [2] [RU] | Kd [2] [nM] | koff [2] [s⁻¹] | kon [2] [M⁻¹ s⁻¹] | t½ [2] [min] | Binder |
| --- | --- | --- | --- | --- | --- | --- | --- | --- | --- | --- |
| 77 | 19.2 | 0.00378 | 197000 | 3.1 | 150 | 6.5 | 0.00115 | 177000 | 10 | 69263 (antibody, human IgG1, kappa, V domains shown, Tested as bivalent human IgG1 from CHO primary supernatant) VH: EVQLVESGGGLVQPGRSLRLSCAVSGFTFDDYAMHWVRQAPGKGLEWVSGISWNSGTRGYADSVKGRFTISRDNAKNSLYLQMNSLRGEDTALYYCVKDITISPNYYGMDVWGQGTTVTVSS VL: DIQMTQSPSSLSASVGDRVTITCRASQDISHYSAWYQQKPGKLPNLLIYAASTLQSGVPSRFSGSGSGTDFSLTTSSLQPEDVATYYCQKYNSVPLTFGGGTKVEIKR |
| 26 | 20.5 | 0.01 | 489000 | 1.2 | 87 | 41 | 0.00466 | 114000 | 2.5 | 69331 (antibody, human IgG1, kappa, V domains shown, Tested as bivalent human IgG1 from CHO primary supernatant) VH: QVQLVESGGGVVQPGRSLRLSCIASGFTFSVYGIHWVRQAPGKGLEWMAVISHDGNIKHYADSVKGRFTISRDNSKNTLYLQINSLRTEDTAVYYCAKDTWNSLDTFDIWGQGTMVTVSS VL: DIQLTQSPSSLSASVGDRVTITCWASQGISSYLAWYQQKPGKAPKLLIYAASTLQSGVPSRFSGSGSGTEFTLTISSLQPEDFATYYCQQLNSYPLTFGGGTKVEIKR |
| 24 | 19 | 0.0106 | 558000 | 1.1 | 465 | 2.45 | 0.00018 | 73400 | 64.1 | 69323 (antibody, human IgG1, kappa, V domains shown, Tested as bivalent human IgG1 from CHO primary supernatant) VH: EVQLVESGGGLVQPGRSLRLSCAASGFTFDDYAMHWVRQAPGKGLEWVSGISWNSGYIGYADSVKGRFTISRDNAENSLHLQMNSLRAEDTALYYCARGGSTLVRGVKGGYYGMDVWGQGTTVTVSS VL: not shown |
| 159 | 10.2 | 0.000653 | 64000 | 17.7 | 598 | 0.513 | 4.19e-05 | 81900 | 276 | 12801B (antibody, human IgG1, kappa, V domains shown, Tested as bivalent human IgG1 from CHO primary supernatant) VH: EVQLLESGGALVQPGGSLRLSCAASGFTFTSYAMHWVRQAPGKGLEWVSSIRGSGGGTYSADSVKGRFTISRDNSRDTLYLQMNSVRAEDTAVYYCARSHDYGAFDFFDYWGQGTLVTVSS VL: DIQMTQSPSSLSASVGDRVTITCRASQGIRTDLGWYQQKPGKAPKRLIYAASSLQSGVPSRFSGSGSGTEFTLTISSLRPEDFATFYCLQYNSYPLTFGGGTKVEIKR |
| 315 | 7.44 | 0.000485 | 65200 | 23.8 | 357 | 5.8 | 0.000336 | 57900 | 34.3 | 12816B (antibody, human IgG1, kappa, V domains shown, Tested as bivalent human IgG1 from CHO primary supernatant) VH: QVQLVESGGGLVKPGGSLRLSCAASGFTFSDYYMNWIRQAPGKGLEWVSYISSSGTTIYYADSVKGRFTISRDNAKKSLYLEMNSLRAEDTAVYYCAREGYGNDYYYYGIDVWGQGTTVTVSS VL: not shown |
| 634 | 8.11 | 0.000723 | 89200 | 16 | 999 | 0.429 | 6.23e-05 | 144000 | 185 | 69340 (antibody, human IgG1, kappa, V domains shown, Tested as bivalent human IgG1 from CHO primary supernatant) VH: EVQLVESGGGLVQPGRSLRLSCAASGFTFDDKAMHWVRQVPGKGLEWISGISWNSGTIGYADSVKGRFIISRDNAKNSLYLQMNSLRAEDTALYYCAKDGDTSGWYWYGLDVWGQGTTVTVSS VL: EIVLTQSPATLSLSPGERATLSCRASQSVSSYLAWYQQKPGQAPRLLIHDVSNRATGIPARFSGSGSGTDFTLTISSLEPEDFVVYYCQQRSDWPITFGQGTRLEIKR |
| 464 | 7.51 | 0.000529 | 70500 | 21.8 | 903 | 0.236 | 2.92e-05 | 123000 | 395 | 12802B (antibody, human IgG1, kappa, V domains shown, Tested as bivalent human IgG1 from CHO primary supernatant) VH: QVQLVESGGGLVKPGGSLRLSCAASGFTFSDYFMSWIRQAPGKGLEWVSYISSTGSTINYADSVKGRFTISRDNVKNSLYLQMTSLRVEDTAVYYCTRDNWNYEYWGQGTLVTVSS VL: EIVMTQSPATLSVSPGERATLSCRASQSVSINLAWYQQKPGQAPRLLIFVASTRATGIPARFSGSGSGTEFTLTISSLQSEDFATYYCQQYDIWPYTFGQGTKLEIKR |
| 651 | 1.88 | 0.000162 | 86400 | 71.2 | 699 | 0.851 | 6.62e-05 | 77600 | 174 | 12799B (antibody, human IgG1, kappa, V domains shown, Tested as bivalent human IgG1 from CHO primary supernatant; also called H1H12799B; REGN17508) VH: QITLKESGPTLVKPTQTLTLTCTFSGFSLSTSGVGVVWIRQPPGKALEWLALIYWNDHKRYSPSLGSRLTITKDTSKNQVVLTMTNMDPVDTATYYCAHYSGSYSYYYYGLDVWGQGTTVTVSS VL: DIQMTQSPSSVSASVGDRVTITCRASQGIASWLAWYQQKPGKAPELLIYAASSLQGGVPSRFSGSGSGTDFTLTISSLQPEDFAIYYCQQANYFPWTFGQGTKVEIKR |
